This note sets out measurements from patent US20230002496A1 (STAIDSON BEIJING BIOPHARMACEUTICALS, published 2023).

The target in this test is T1, human GM-CSFRα, full length on cells (human, UniProt P15509 23-400).
T1 sequence: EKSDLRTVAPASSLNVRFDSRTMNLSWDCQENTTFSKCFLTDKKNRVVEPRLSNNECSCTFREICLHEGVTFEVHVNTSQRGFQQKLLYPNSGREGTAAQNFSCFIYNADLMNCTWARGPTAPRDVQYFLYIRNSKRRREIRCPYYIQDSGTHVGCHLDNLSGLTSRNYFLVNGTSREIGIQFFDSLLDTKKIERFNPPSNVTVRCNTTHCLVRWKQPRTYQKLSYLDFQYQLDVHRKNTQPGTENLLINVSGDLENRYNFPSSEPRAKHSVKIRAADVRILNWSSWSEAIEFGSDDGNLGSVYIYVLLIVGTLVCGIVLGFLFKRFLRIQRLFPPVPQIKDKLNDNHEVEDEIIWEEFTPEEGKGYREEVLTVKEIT
Nature of the test: cell-based or functional assay.

B1: E35-scFv LS52H (scFv, V domains shown)
VH: QMQLVQSGAEVKKPGASVKVSCKVSGYTLTELSIHWVRQAPGKGLEWMGGFDPEDGETIYAQKFQGRVTMTGDTSTDTAYLELSSLRSEDTALYYCATGRYTSLATTYGFDYWGQGTLVTVSS
VL: EIVMTQSPATLSLSPGERATLSCRASQSVSSYLAWYQQKPGQAPRLLIYGAHSRATGIPDRFSGSGSGTDFTLTISRLEPEDFAVYYCQQYDNWPYTFGQGTKLEIK
Consider B1, for which the “IC50, TF-1 cell proliferation” value was 0.192 µg/mL.

B2: E35-scFv LA51F (scFv, V domains shown)
VH: QMQLVQSGAEVKKPGASVKVSCKVSGYTLTELSIHWVRQAPGKGLEWMGGFDPEDGETIYAQKFQGRVTMTGDTSTDTAYLELSSLRSEDTALYYCATGRYTSLATTYGFDYWGQGTLVTVSS
VL: EIVMTQSPATLSLSPGERATLSCRASQSVSSYLAWYQQKPGQAPRLLIYGFSSRATGIPDRFSGSGSGTDFTLTISRLEPEDFAVYYCQQYDNWPYTFGQGTKLEIK
For B2, the “IC50, TF-1 cell proliferation” value worked out at 0.294 µg/mL.

B3: E35-scFv LA51V (scFv, V domains shown)
VH: QMQLVQSGAEVKKPGASVKVSCKVSGYTLTELSIHWVRQAPGKGLEWMGGFDPEDGETIYAQKFQGRVTMTGDTSTDTAYLELSSLRSEDTALYYCATGRYTSLATTYGFDYWGQGTLVTVSS
VL: EIVMTQSPATLSLSPGERATLSCRASQSVSSYLAWYQQKPGQAPRLLIYGVSSRATGIPDRFSGSGSGTDFTLTISRLEPEDFAVYYCQQYDNWPYTFGQGTKLEIK
Turning to B3, the “IC50, TF-1 cell proliferation” value is 0.36 µg/mL.

B4: E35-scFv LA51T (scFv, V domains shown)
VH: QMQLVQSGAEVKKPGASVKVSCKVSGYTLTELSIHWVRQAPGKGLEWMGGFDPEDGETIYAQKFQGRVTMTGDTSTDTAYLELSSLRSEDTALYYCATGRYTSLATTYGFDYWGQGTLVTVSS
VL: EIVMTQSPATLSLSPGERATLSCRASQSVSSYLAWYQQKPGQAPRLLIYGTSSRATGIPDRFSGSGSGTDFTLTISRLEPEDFAVYYCQQYDNWPYTFGQGTKLEIK
Regarding B4, the “IC50, TF-1 cell proliferation” value stood at 0.18 µg/mL.

B5: E35-scFv LA51G (scFv, V domains shown)
VH: QMQLVQSGAEVKKPGASVKVSCKVSGYTLTELSIHWVRQAPGKGLEWMGGFDPEDGETIYAQKFQGRVTMTGDTSTDTAYLELSSLRSEDTALYYCATGRYTSLATTYGFDYWGQGTLVTVSS
VL: EIVMTQSPATLSLSPGERATLSCRASQSVSSYLAWYQQKPGQAPRLLIYGGSSRATGIPDRFSGSGSGTDFTLTISRLEPEDFAVYYCQQYDNWPYTFGQGTKLEIK
With B5, the “IC50, TF-1 cell proliferation” value amounted to 0.12 µg/mL.

B6: E35-scFv LA51S (scFv, V domains shown)
VH: QMQLVQSGAEVKKPGASVKVSCKVSGYTLTELSIHWVRQAPGKGLEWMGGFDPEDGETIYAQKFQGRVTMTGDTSTDTAYLELSSLRSEDTALYYCATGRYTSLATTYGFDYWGQGTLVTVSS
VL: EIVMTQSPATLSLSPGERATLSCRASQSVSSYLAWYQQKPGQAPRLLIYGSSSRATGIPDRFSGSGSGTDFTLTISRLEPEDFAVYYCQQYDNWPYTFGQGTKLEIK
With B6, the “IC50, TF-1 cell proliferation” value was found to be 0.18 µg/mL.

B7: E35-scFv LS52D (scFv, V domains shown)
VH: QMQLVQSGAEVKKPGASVKVSCKVSGYTLTELSIHWVRQAPGKGLEWMGGFDPEDGETIYAQKFQGRVTMTGDTSTDTAYLELSSLRSEDTALYYCATGRYTSLATTYGFDYWGQGTLVTVSS
VL: EIVMTQSPATLSLSPGERATLSCRASQSVSSYLAWYQQKPGQAPRLLIYGADSRATGIPDRFSGSGSGTDFTLTISRLEPEDFAVYYCQQYDNWPYTFGQGTKLEIK
For B7, the “IC50, TF-1 cell proliferation” value is 1.75 µg/mL.

B8: E35-scFv LA51R (scFv, V domains shown)
VH: QMQLVQSGAEVKKPGASVKVSCKVSGYTLTELSIHWVRQAPGKGLEWMGGFDPEDGETIYAQKFQGRVTMTGDTSTDTAYLELSSLRSEDTALYYCATGRYTSLATTYGFDYWGQGTLVTVSS
VL: EIVMTQSPATLSLSPGERATLSCRASQSVSSYLAWYQQKPGQAPRLLIYGRSSRATGIPDRFSGSGSGTDFTLTISRLEPEDFAVYYCQQYDNWPYTFGQGTKLEIK
Turning to B8, the “IC50, TF-1 cell proliferation” value came out at 0.12 µg/mL.

B9: E35-scFv LA51N (scFv, V domains shown)
VH: QMQLVQSGAEVKKPGASVKVSCKVSGYTLTELSIHWVRQAPGKGLEWMGGFDPEDGETIYAQKFQGRVTMTGDTSTDTAYLELSSLRSEDTALYYCATGRYTSLATTYGFDYWGQGTLVTVSS
VL: EIVMTQSPATLSLSPGERATLSCRASQSVSSYLAWYQQKPGQAPRLLIYGNSSRATGIPDRFSGSGSGTDFTLTISRLEPEDFAVYYCQQYDNWPYTFGQGTKLEIK
With B9, the “IC50, TF-1 cell proliferation” value is 0.36 µg/mL.

B10: E35-scFv LS52N (scFv, V domains shown)
VH: QMQLVQSGAEVKKPGASVKVSCKVSGYTLTELSIHWVRQAPGKGLEWMGGFDPEDGETIYAQKFQGRVTMTGDTSTDTAYLELSSLRSEDTALYYCATGRYTSLATTYGFDYWGQGTLVTVSS
VL: EIVMTQSPATLSLSPGERATLSCRASQSVSSYLAWYQQKPGQAPRLLIYGANSRATGIPDRFSGSGSGTDFTLTISRLEPEDFAVYYCQQYDNWPYTFGQGTKLEIK
On to B10, for which the “IC50, TF-1 cell proliferation” value came to 0.253 µg/mL.

B11: E35-scFv LA51H (scFv, V domains shown)
VH: QMQLVQSGAEVKKPGASVKVSCKVSGYTLTELSIHWVRQAPGKGLEWMGGFDPEDGETIYAQKFQGRVTMTGDTSTDTAYLELSSLRSEDTALYYCATGRYTSLATTYGFDYWGQGTLVTVSS
VL: EIVMTQSPATLSLSPGERATLSCRASQSVSSYLAWYQQKPGQAPRLLIYGHSSRATGIPDRFSGSGSGTDFTLTISRLEPEDFAVYYCQQYDNWPYTFGQGTKLEIK
For the molecule B11, the “IC50, TF-1 cell proliferation” value came out at 0.162 µg/mL.

B12: E35-scFv LA51C (scFv, V domains shown)
VH: QMQLVQSGAEVKKPGASVKVSCKVSGYTLTELSIHWVRQAPGKGLEWMGGFDPEDGETIYAQKFQGRVTMTGDTSTDTAYLELSSLRSEDTALYYCATGRYTSLATTYGFDYWGQGTLVTVSS
VL: EIVMTQSPATLSLSPGERATLSCRASQSVSSYLAWYQQKPGQAPRLLIYGCSSRATGIPDRFSGSGSGTDFTLTISRLEPEDFAVYYCQQYDNWPYTFGQGTKLEIK
Regarding B12, the “IC50, TF-1 cell proliferation” value was 0.37 µg/mL.

B13: E35-scFv LA51M (scFv, V domains shown)
VH: QMQLVQSGAEVKKPGASVKVSCKVSGYTLTELSIHWVRQAPGKGLEWMGGFDPEDGETIYAQKFQGRVTMTGDTSTDTAYLELSSLRSEDTALYYCATGRYTSLATTYGFDYWGQGTLVTVSS
VL: EIVMTQSPATLSLSPGERATLSCRASQSVSSYLAWYQQKPGQAPRLLIYGMSSRATGIPDRFSGSGSGTDFTLTISRLEPEDFAVYYCQQYDNWPYTFGQGTKLEIK
B13: the “IC50, TF-1 cell proliferation” value was 0.264 µg/mL.

B14: E35-scFv LA51K (scFv, V domains shown)
VH: QMQLVQSGAEVKKPGASVKVSCKVSGYTLTELSIHWVRQAPGKGLEWMGGFDPEDGETIYAQKFQGRVTMTGDTSTDTAYLELSSLRSEDTALYYCATGRYTSLATTYGFDYWGQGTLVTVSS
VL: EIVMTQSPATLSLSPGERATLSCRASQSVSSYLAWYQQKPGQAPRLLIYGKSSRATGIPDRFSGSGSGTDFTLTISRLEPEDFAVYYCQQYDNWPYTFGQGTKLEIK
On to B14, for which the “IC50, TF-1 cell proliferation” value was 0.168 µg/mL.

B15: E35-scFv LS52P (scFv, V domains shown)
VH: QMQLVQSGAEVKKPGASVKVSCKVSGYTLTELSIHWVRQAPGKGLEWMGGFDPEDGETIYAQKFQGRVTMTGDTSTDTAYLELSSLRSEDTALYYCATGRYTSLATTYGFDYWGQGTLVTVSS
VL: EIVMTQSPATLSLSPGERATLSCRASQSVSSYLAWYQQKPGQAPRLLIYGAPSRATGIPDRFSGSGSGTDFTLTISRLEPEDFAVYYCQQYDNWPYTFGQGTKLEIK
With B15, the “IC50, TF-1 cell proliferation” value came out at 1.05 µg/mL.
